Laboratory results published in the Human Domainome abundance scans (Beltran et al. 2025).
± gives the uncertainty stated by the source.

B1: Protein piccolo, residues 1058 to 1114; numbered along this chain, Q9Y6V0 (parent)
chain: TCPLCKTELNIGSKDPPNFNTCTECKNQVCNLCGFNPTPHLTEIQEWLCLNCQTQRA

Variants of: B1
Test: abundance fitness (aPCA) (normalised: wild type 0, dead -1); higher = more abundant; growth selection in yeast, the domain comes from the species named
Settings: Homo sapiens

**Q.** Which abundance fitness does the source give for TCPLCKTELNIGSKDPPNFNTCTECKNQVCNLCGFNPTPHLTEIQEWRCLNCQTQRA [L48R] here?
**A.** -0.079 ± 0.11

**Q.** With TCPLCKTELNIGSKDPPNFNTCTECKNQVCNLCGFNPTPHLTEIQEWFCLNCQTQRA [L48F] as the variant, how does the abundance fitness read?
**A.** 0.09 ± 0.13

**Q.** Which abundance fitness does the source give for TCPLCKTELNIGSKDPPNFNTCTECKNQVCNLCGFNPTPHLTEIQEWLRLNCQTQRA [C49R] here?
**A.** -0.782 ± 0.13

**Q.** For TCPLCKTELNIGSKDPPNFNTCTECKNQVCNLCGFNPTPQLTEIQEWLCLNCQTQRA [H40Q], which abundance fitness is on record?
**A.** -0.065 ± 0.18

**Q.** Which abundance fitness does the source give for TCPLCKTELNIGSKDPPNFNTCTECKNQVCNLCGFNPTPTLTEIQEWLCLNCQTQRA [H40T] here?
**A.** 0.185 ± 0.14

**Q.** For TCPLCKTELNIGSKDPPNFNTCTECKIQVCNLCGFNPTPHLTEIQEWLCLNCQTQRA [N27I], which abundance fitness is on record?
**A.** 0.004 ± 0.2

**Q.** Which abundance fitness does the source give for TCPLCKTELNIGSKDPPNFNTCTECKTQVCNLCGFNPTPHLTEIQEWLCLNCQTQRA [N27T] here?
**A.** -0.082 ± 0.18

**Q.** Which abundance fitness does the source give for TCPLCKTELNIGSKDPPNFNTCTECKNQDCNLCGFNPTPHLTEIQEWLCLNCQTQRA [V29D] here?
**A.** -0.32 ± 0.092

**Q.** For TCPLCKTELNIGSKDPPNFNTCTECKNQHCNLCGFNPTPHLTEIQEWLCLNCQTQRA [V29H], which abundance fitness is on record?
**A.** -0.1 ± 0.076

**Q.** With TCPLCKTELNIGSKDPPNFNTCTECKNQVCNMCGFNPTPHLTEIQEWLCLNCQTQRA [L32M] as the variant, how does the abundance fitness read?
**A.** -0.131 ± 0.13

**Q.** Which abundance fitness does the source give for TCPLCKTELNIGSKDPPNFNTCTECKNQVCNICGFNPTPHLTEIQEWLCLNCQTQRA [L32I] here?
**A.** -0.097 ± 0.2

**Q.** Which abundance fitness does the source give for TCPLCKTELNHGSKDPPNFNTCTECKNQVCNLCGFNPTPHLTEIQEWLCLNCQTQRA [I11H] here?
**A.** 0.054 ± 0.14

**Q.** With TCPLCKTELNKGSKDPPNFNTCTECKNQVCNLCGFNPTPHLTEIQEWLCLNCQTQRA [I11K] as the variant, how does the abundance fitness read?
**A.** -0.104 ± 0.15

**Q.** Which abundance fitness does the source give for TCPLCKTEENIGSKDPPNFNTCTECKNQVCNLCGFNPTPHLTEIQEWLCLNCQTQRA [L9E] here?
**A.** -0.11 ± 0.11

**Q.** Which abundance fitness does the source give for TCPLCKTEINIGSKDPPNFNTCTECKNQVCNLCGFNPTPHLTEIQEWLCLNCQTQRA [L9I] here?
**A.** -0.098 ± 0.14

**Q.** With TCPLCKTEKNIGSKDPPNFNTCTECKNQVCNLCGFNPTPHLTEIQEWLCLNCQTQRA [L9K] as the variant, how does the abundance fitness read?
**A.** 0.026 ± 0.12

**Q.** For TCPLCKTELNIGSKDPPNFNTCTECKNQVCNLCGFNPTFHLTEIQEWLCLNCQTQRA [P39F], which abundance fitness is on record?
**A.** 0.025 ± 0.16

**Q.** Which abundance fitness does the source give for TCPQCKTELNIGSKDPPNFNTCTECKNQVCNLCGFNPTPHLTEIQEWLCLNCQTQRA [L4Q] here?
**A.** 0.028 ± 0.19

**Q.** For TCPVCKTELNIGSKDPPNFNTCTECKNQVCNLCGFNPTPHLTEIQEWLCLNCQTQRA [L4V], which abundance fitness is on record?
**A.** -0.308 ± 0.095

**Q.** For TCPYCKTELNIGSKDPPNFNTCTECKNQVCNLCGFNPTPHLTEIQEWLCLNCQTQRA [L4Y], which abundance fitness is on record?
**A.** -0.088 ± 0.14

**Q.** With TCPLCKTELNIGCKDPPNFNTCTECKNQVCNLCGFNPTPHLTEIQEWLCLNCQTQRA [S13C] as the variant, how does the abundance fitness read?
**A.** -0.384 ± 0.13

**Q.** With TCPLYKTELNIGSKDPPNFNTCTECKNQVCNLCGFNPTPHLTEIQEWLCLNCQTQRA [C5Y] as the variant, how does the abundance fitness read?
**A.** -0.947 ± 0.088

**Q.** Which abundance fitness does the source give for TCPLCKTELNIGSKDPPNFNTCTECKNQVRNLCGFNPTPHLTEIQEWLCLNCQTQRA [C30R] here?
**A.** -0.541 ± 0.099

**Q.** For TCPLCKTELNIGSKDPPNFNTCTECKNQVTNLCGFNPTPHLTEIQEWLCLNCQTQRA [C30T], which abundance fitness is on record?
**A.** -0.597 ± 0.13

**Q.** With TCPLCKTELNIGSKDPPNFNTCTECKNQVLNLCGFNPTPHLTEIQEWLCLNCQTQRA [C30L] as the variant, how does the abundance fitness read?
**A.** -0.971 ± 0.11

**Q.** With TCPLCKTELNIGSKDPPNFNTCTECKNQVCNLCGFNPTPHLTEIQEWLCLGCQTQRA [N51G] as the variant, how does the abundance fitness read?
**A.** -0.091 ± 0.14

**Q.** For TCPLCKTELNIGSKDPPNFNTCTECKNQVCNLCGFNLTPHLTEIQEWLCLNCQTQRA [P37L], which abundance fitness is on record?
**A.** -0.023 ± 0.094

**Q.** Which abundance fitness does the source give for TCPLCKTELNIGSKDPPNFNTCTECKNQVCNLCGFNGTPHLTEIQEWLCLNCQTQRA [P37G] here?
**A.** 0.039 ± 0.087

**Q.** Which abundance fitness does the source give for TCPLCKTELNIGSKDPPNFNTCTETKNQVCNLCGFNPTPHLTEIQEWLCLNCQTQRA [C25T] here?
**A.** -0.606 ± 0.13

**Q.** Which abundance fitness does the source give for TCPLCKTELNIGSKDPPNFNTCTERKNQVCNLCGFNPTPHLTEIQEWLCLNCQTQRA [C25R] here?
**A.** -0.79 ± 0.079

**Q.** For TCPLCKTELNIGSKDPPNFNTCTEHKNQVCNLCGFNPTPHLTEIQEWLCLNCQTQRA [C25H], which abundance fitness is on record?
**A.** -0.529 ± 0.16

**Q.** With TCPLCKTELNIGSKDPPNFNTCTEAKNQVCNLCGFNPTPHLTEIQEWLCLNCQTQRA [C25A] as the variant, how does the abundance fitness read?
**A.** -0.784 ± 0.1

**Q.** With TCPLCKTELNIGSKDPPNFNTCTEMKNQVCNLCGFNPTPHLTEIQEWLCLNCQTQRA [C25M] as the variant, how does the abundance fitness read?
**A.** -0.742 ± 0.14

**Q.** Which abundance fitness does the source give for TCPLCKTELNIGSKDPPNPNTCTECKNQVCNLCGFNPTPHLTEIQEWLCLNCQTQRA [F19P] here?
**A.** -0.385 ± 0.15

**Q.** With TCPLCKTELNIGSKDPPNTNTCTECKNQVCNLCGFNPTPHLTEIQEWLCLNCQTQRA [F19T] as the variant, how does the abundance fitness read?
**A.** -0.044 ± 0.13

**Q.** With TCPLCKTELNIGSKDPPNFNTCTECVNQVCNLCGFNPTPHLTEIQEWLCLNCQTQRA [K26V] as the variant, how does the abundance fitness read?
**A.** 0.065 ± 0.097

**Q.** Which abundance fitness does the source give for TCPLCKTELNIGSKDPPNFNTCTECGNQVCNLCGFNPTPHLTEIQEWLCLNCQTQRA [K26G] here?
**A.** 0.139 ± 0.11

**Q.** Which abundance fitness does the source give for TCPLCKTELNIGSKDPPNFNTCTECNNQVCNLCGFNPTPHLTEIQEWLCLNCQTQRA [K26N] here?
**A.** 0.09 ± 0.19

**Q.** With TCPLCKTELNIGSKDPPNFNTCTECHNQVCNLCGFNPTPHLTEIQEWLCLNCQTQRA [K26H] as the variant, how does the abundance fitness read?
**A.** -0.253 ± 0.29

**Q.** For TCPLCKTELNIGSKDPPNFNTCTECKNQVCNLCGFNPTPHLTEIQEMLCLNCQTQRA [W47M], which abundance fitness is on record?
**A.** -0.06 ± 0.17

**Q.** Which abundance fitness does the source give for TCPLCKTELNIGSKDPPNFNTCTECKNQVCNLCGFNPTPHLTEIQEELCLNCQTQRA [W47E] here?
**A.** 0.031 ± 0.18

**Q.** Which abundance fitness does the source give for TCPLCKTELNIGSKDPPNFNTCTECKNQVCNLMGFNPTPHLTEIQEWLCLNCQTQRA [C33M] here?
**A.** -0.812 ± 0.14

**Q.** Which abundance fitness does the source give for TCPLCKTELNIGSKDPPNFNTCTECKNQVCNLCGFNPTPHLTEIQEWLCSNCQTQRA [L50S] here?
**A.** 0.141 ± 0.097

**Q.** For TCPLCKTELNIGSKDPPNFNTCTECKNQVCNLCGFNPTPHLTEIQEWLCENCQTQRA [L50E], which abundance fitness is on record?
**A.** 0.157 ± 0.23

**Q.** For TCPLCKTELNIGSKDPPNFNTCTECKNQVCNLCGFNPTPHLTEIQEWLCDNCQTQRA [L50D], which abundance fitness is on record?
**A.** 0.208 ± 0.17

**Q.** Which abundance fitness does the source give for TCPLCKTELNIGSKDPPNFNTCTECKNQVCNLCGFNPTPHLTEIQEWLCTNCQTQRA [L50T] here?
**A.** 0.208 ± 0.14
